Experimental data reported in patent US20250152729A1.
Where two headings read alike, the source gives them in different places.

Assays:
[1] = target: BCMA (TNFRSF17) on NCI-H929 cells (UniProt Q02223); experiment: cell-based or functional assay
[2] = target: BCMA (TNFRSF17) on NCI-H929 cells (UniProt Q02223); experiment: cell-based or functional assay; remark: listed apart in the source

BCMA (TNFRSF17) on NCI-H929 cells, sequence (Q02223 whole entry): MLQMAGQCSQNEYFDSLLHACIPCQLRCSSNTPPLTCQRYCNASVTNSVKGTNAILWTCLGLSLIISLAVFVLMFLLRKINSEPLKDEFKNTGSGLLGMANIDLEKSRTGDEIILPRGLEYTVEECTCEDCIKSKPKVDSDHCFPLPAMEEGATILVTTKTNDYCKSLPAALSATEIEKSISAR

EC50 (nM), Fab-pHast internalisation into NCI-H929 [1]: 11 nM
Fold-Change at 6 hours (10 nM), Fab-pHast internalisation [1]: 37 fold
Substance: J6M0 anti-BCMA human Alya IgG1 conjugated to McMMAF (antibody)
Average NCI-H929 IC50 [pM], cell kill [1]: 74.5 pM
Average NCI-H929 IC50 [pM], cell kill [2]: 110 pM
